For this test, the target named is T1, human TF-Fc (Homo sapiens, UniProt P13726).
T1 construct: tissue factor (TF; CD142), human; Construct limits may be in Supplementary file1; also called human tissue factor Fc fusion protein; HuTF; source: Expi293F, transfected (pcDNA3.1(-), Genscript), purified from supernatant (Protein A; for SPR also SEC on Superdex 200 after 2 mM DTT)
Description: SPR; human TF-Fc amine-coupled to a CM5 chip (target 500 RU); scFvFc flowed over at 18.75-3.125 nM in PBS-EP (0.01% Tween20, 300 mM NaCl PBS, pH 7.4), 30 µL/min, contact 180 s, dissociation 600 s; 25 °C; Biacore X100; global fit, 1:1 binding model. Conditions: both partners purified. Background: SPR reads the build-up and loss of mass on a sensor chip optically.

T1 sequence (P13726 33-251): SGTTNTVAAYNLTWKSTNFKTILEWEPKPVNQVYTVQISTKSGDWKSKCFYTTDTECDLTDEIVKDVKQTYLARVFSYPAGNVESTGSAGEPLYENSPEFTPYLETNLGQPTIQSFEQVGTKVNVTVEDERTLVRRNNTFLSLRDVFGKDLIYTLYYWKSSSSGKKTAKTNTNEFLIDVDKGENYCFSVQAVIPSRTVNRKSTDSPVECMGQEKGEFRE

B1: TF8-5G9 anti-TF scFvFc (scFv, V domains shown)
VH: EIQLQQSGAELVRPGALVKLSCKASGFNIKDYYMHWVKQRPEQGLEWIGLIDPENGNTIYDPKFQGKASITADTSSNTAYLQLSSLTSEDTAVYYCARDNSYYFDYWGQGTTLTVSS
VL: DIKMTQSPSSMYASLGERVTITCKASQDIRKYLNWYQQKPWKSPKTLIYYATSLADGVPSRFSGSGSGQDYSLTISSLESDDTATYYCLQHGESPYTFGGGTKLEIN
notes: also called TF8-5G9 scFvFc; TF85G9 scFvFc; source: Expi293F, transfected (pcDNA3.1(-)), purified from supernatant (Protein A, then SEC on Superdex 200 after 2 mM DTT)
The Kd is the equilibrium constant for the complex coming apart. The low end stands for higher affinity, the high end for lower affinity. Molecule B1 had a Kd of 0.37 nM.

B2: hATR-5 scFvFc (scFv, V domains shown)
VH: QVQLLESGAVLARPGTSVKISCKASGFNIKDYYMHWVKQRPGQGLEWIGGNDPANGHSMYDPKFQGRVTITADTSTSTVFMELSSLRSEDTAVYYCARDSGYAMDYWGQGTLVTVSS
VL: DIQMTQSPSSLSASVGDRVTITCKASQDIKSFLSWYQQKPEKAPKSLIYYATSLADGVPSRFSGSGSGTDYTLTISSLQPEDFATYYCLQHGESPYTFGGGTKVEIK
notes: source: Expi293F, transfected (pcDNA3.1(-)), purified from supernatant (Protein A, then SEC on Superdex 200 after 2 mM DTT)
In the case of B2, the Kd came out at 0.46 nM.

The record behind these values is publication PMC11303627 (Cancer Immunology, Immunotherapy : CII, 2024).
